# According to the supplement of paper PMC10567573:
# B1: C10orf62 (parent)
# chain: TSECPSDKDKSPESHKAKNESWIK
# Variants of: B1
# Test: protein stability index of a GFP-peptide fusion (GPS, HEK-293T) (PSI 1-6); higher = more stable
# Conditions: c terminus: a fixed tail appended
# 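Further: lentivirally expressed fusions sorted by FACS into six bins by GFP to DsRed ratio, PSI derived from sequencing read proportions per bin multiplied by bin number.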
row,Variant,protein stability index
1,TSECPSDKDKSTESHKAKNESWIK [P12T],3.54
2,TSECPSDKDKSVESHKAKNESWIK [P12V],2.4
3,TSECPSDKDKSWESHKAKNESWIK [P12W],2.37
4,TSECPSDKDKSYESHKAKNESWIK [P12Y],2.74
5,TSECPSDKDKSPASHKAKNESWIK [E13A],2.77
6,TSECPSDKDKSPCSHKAKNESWIK [E13C],3.35
7,TSECPSDKDKSPDSHKAKNESWIK [E13D],2.98
8,TSECPSDKDKSPFSHKAKNESWIK [E13F],2.94
9,TSECPSDKDKSPGSHKAKNESWIK [E13G],2.89
10,TSECPSDKDKSPHSHKAKNESWIK [E13H],3.02
11,TSECPSDKDKSPISHKAKNESWIK [E13I],2.44
12,TSECPSDKDKSPKSHKAKNESWIK [E13K],3.08
13,TSECPSDKDKSPLSHKAKNESWIK [E13L],2.21
14,TSECPSDKDKSPMSHKAKNESWIK [E13M],2.65
15,TSECPSDKDKSPNSHKAKNESWIK [E13N],3.43
16,TSECPSDKDKSPPSHKAKNESWIK [E13P],2.63
17,TSECPSDKDKSPQSHKAKNESWIK [E13Q],3.34
18,TSECPSDKDKSPRSHKAKNESWIK [E13R],2.82
19,TSECPSDKDKSPSSHKAKNESWIK [E13S],3.2
20,TSECPSDKDKSPTSHKAKNESWIK [E13T],2.65
21,TSECPSDKDKSPVSHKAKNESWIK [E13V],2.77
22,TSECPSDKDKSPWSHKAKNESWIK [E13W],2.17
23,TSECPSDKDKSPYSHKAKNESWIK [E13Y],2.98
24,TSECPSDKDKSPEAHKAKNESWIK [S14A],3.7

row,Variant,protein stability index
1,TSECPSDKDKSPECHKAKNESWIK [S14C],3.52
2,TSECPSDKDKSPEDHKAKNESWIK [S14D],4.49
3,TSECPSDKDKSPEEHKAKNESWIK [S14E],4.58
4,TSECPSDKDKSPEFHKAKNESWIK [S14F],3.89
5,TSECPSDKDKSPEGHKAKNESWIK [S14G],3.5
6,TSECPSDKDKSPEHHKAKNESWIK [S14H],3.71
7,TSECPSDKDKSPEIHKAKNESWIK [S14I],3.66
8,TSECPSDKDKSPEKHKAKNESWIK [S14K],2.82
9,TSECPSDKDKSPELHKAKNESWIK [S14L],3.48
10,TSECPSDKDKSPEMHKAKNESWIK [S14M],3.34
11,TSECPSDKDKSPENHKAKNESWIK [S14N],3.95
12,TSECPSDKDKSPEPHKAKNESWIK [S14P],3.2
13,TSECPSDKDKSPEQHKAKNESWIK [S14Q],4.13
14,TSECPSDKDKSPERHKAKNESWIK [S14R],3.82
15,TSECPSDKDKSPETHKAKNESWIK [S14T],3.41
16,TSECPSDKDKSPEVHKAKNESWIK [S14V],3.98
17,TSECPSDKDKSPEWHKAKNESWIK [S14W],4
18,TSECPSDKDKSPEYHKAKNESWIK [S14Y],3
19,TSECPSDKDKSPESAKAKNESWIK [H15A],4.12
20,TSECPSDKDKSPESCKAKNESWIK [H15C],3.2
21,TSECPSDKDKSPESDKAKNESWIK [H15D],3.92
22,TSECPSDKDKSPESEKAKNESWIK [H15E],3.84
23,TSECPSDKDKSPESFKAKNESWIK [H15F],3
24,TSECPSDKDKSPESGKAKNESWIK [H15G],3.69

row,Variant,protein stability index
1,TSECPSDKDKSPESIKAKNESWIK [H15I],4.07
2,TSECPSDKDKSPESKKAKNESWIK [H15K],4.06
3,TSECPSDKDKSPESLKAKNESWIK [H15L],3.48
4,TSECPSDKDKSPESMKAKNESWIK [H15M],2.83
5,TSECPSDKDKSPESNKAKNESWIK [H15N],2.69
6,TSECPSDKDKSPESPKAKNESWIK [H15P],3.92
7,TSECPSDKDKSPESQKAKNESWIK [H15Q],3.37
8,TSECPSDKDKSPESRKAKNESWIK [H15R],3.31
9,TSECPSDKDKSPESSKAKNESWIK [H15S],3.61
10,TSECPSDKDKSPESTKAKNESWIK [H15T],2.99
11,TSECPSDKDKSPESVKAKNESWIK [H15V],3.88
12,TSECPSDKDKSPESWKAKNESWIK [H15W],3.33
13,TSECPSDKDKSPESYKAKNESWIK [H15Y],3.35
14,TSECPSDKDKSPESHAAKNESWIK [K16A],4.49
15,TSECPSDKDKSPESHCAKNESWIK [K16C],3.75
16,TSECPSDKDKSPESHDAKNESWIK [K16D],4.2
17,TSECPSDKDKSPESHEAKNESWIK [K16E],4.94
18,TSECPSDKDKSPESHFAKNESWIK [K16F],3.85
19,TSECPSDKDKSPESHGAKNESWIK [K16G],3.58
20,TSECPSDKDKSPESHHAKNESWIK [K16H],3.8
21,TSECPSDKDKSPESHIAKNESWIK [K16I],3.92
22,TSECPSDKDKSPESHLAKNESWIK [K16L],3.37
23,TSECPSDKDKSPESHMAKNESWIK [K16M],3.85
24,TSECPSDKDKSPESHNAKNESWIK [K16N],3.67

row,Variant,protein stability index
1,TSECPSDKDKSPESHPAKNESWIK [K16P],4.62
2,TSECPSDKDKSPESHQAKNESWIK [K16Q],3.29
3,TSECPSDKDKSPESHRAKNESWIK [K16R],3.02
4,TSECPSDKDKSPESHSAKNESWIK [K16S],3.79
5,TSECPSDKDKSPESHTAKNESWIK [K16T],4.35
6,TSECPSDKDKSPESHVAKNESWIK [K16V],3.95
7,TSECPSDKDKSPESHWAKNESWIK [K16W],3.33
8,TSECPSDKDKSPESHYAKNESWIK [K16Y],3.6
9,TSECPSDKDKSPESHKCKNESWIK [A17C],3.6
10,TSECPSDKDKSPESHKDKNESWIK [A17D],3.88
11,TSECPSDKDKSPESHKEKNESWIK [A17E],3.88
12,TSECPSDKDKSPESHKFKNESWIK [A17F],3.42
13,TSECPSDKDKSPESHKGKNESWIK [A17G],3.27
14,TSECPSDKDKSPESHKHKNESWIK [A17H],3.29
15,TSECPSDKDKSPESHKIKNESWIK [A17I],4.17
16,TSECPSDKDKSPESHKKKNESWIK [A17K],2.93
17,TSECPSDKDKSPESHKLKNESWIK [A17L],3.64
18,TSECPSDKDKSPESHKMKNESWIK [A17M],2.93
19,TSECPSDKDKSPESHKNKNESWIK [A17N],3.56
20,TSECPSDKDKSPESHKPKNESWIK [A17P],3.07
21,TSECPSDKDKSPESHKQKNESWIK [A17Q],3.64
22,TSECPSDKDKSPESHKRKNESWIK [A17R],2.6
